Measurements taken from US20210371539A1 (Genmab, published 2021).

B1: IgG1-CD37-37.3-E430G (antibody, V domains shown)
VH: QVQVKESGPGLVAPSQSLSITCTVSGFSLTTSGVSWVRQPPGKGLEWLGVIWGDGSTNYHSALKSRLSIKKDHSKSQVFLKLNSLQTDDTATYYCAKGGYSLAHWGQGTLVTVSA
VL: DIQMTQSPASLSVSVGETVTITCRASENIRSNLAWYQQKQGKSPQLLVNVATNLADGVPSRFSGSGSGTQYSLKINSLQSEDFGTYYCQHYWGTTWTFGGGTKLEIKR
modifications: Conjugated to Alexa Fluor 555 or 647 in the FRET assays only (about 3 dyes per antibody, sites not stated).
notes: IgG1 kappa with E430G (EU numbering) in the Fc; also called hexamerization-enhanced CD37 antibody
B2: IgG1-CD37-37.3 (antibody, V domains shown)
VH: B1 VH
VL: DIQMTQSPASLSVSVGETVTITCRASENIRSNLAWYQQKQGKSPQLLVNVATNLADGVPSRFSGSGSGTQYSLKINSLQSEDFGTYYCQHYWGTTWTFGGGTKLEIK
notes: Expressed as IgG1 kappa with wild type Fc; In the FRET assays it was conjugated to Alexa Fluor 555 or 647 (about 3 dye molecules per antibody)
B3: IgG1-CD20-11B8-E430G (antibody, V domains shown)
VH: EVQLVQSGGGLVHPGGSLRLSCTGSGFTFSYHAMHWVRQAPGKGLEWVSIIGTGGVTYYADSVKGRFTISRDNVKNSLYLQMNSLRAEDMAVYYCARDYYGAGSFYDGLYGMDVWGQGTTVTVSS
VL: EIVLTQSPATLSLSPGERATLSCRASQSVSSYLAWYQQKPGQAPRLLIYDASNRATGIPARFSGSGSGTDFTLTISSLEPEDFAVYYCQQRSDWPLTFGGGTKVEIKR
modifications: Conjugated to Alexa Fluor 555 or 647 in the FRET assays only (about 3 dyes per antibody, sites not stated).
notes: IgG1 kappa with E430G (EU numbering) in the Fc; also called Hx-CD20-11B8; Hx-CD20-11B
B4: IgG1-CD20-11B8 (antibody, V domains shown)
VH: B3 VH
VL: EIVLTQSPATLSLSPGERATLSCRASQSVSSYLAWYQQKPGQAPRLLIYDASNRATGIPARFSGSGSGTDFTLTISSLEPEDFAVYYCQQRSDWPLTFGGGTKVEIK
notes: Expressed as IgG1 kappa with wild type Fc; In the FRET assays it was conjugated to Alexa Fluor 555 or 647; also called WT type II CD20 antibody IgG1-CD20-11B8

How the values were obtained:
[1] = target: T1, Human CD37 (human, UniProt P11049 1-281); experiment: conclusion from CDC assays on Daudi and WIL2-S cells
T1 construct: Endogenous CD37 on the human lymphoma cell line Daudi; also called Leukocyte Antigen CD37; GP52-40
T1 sequence: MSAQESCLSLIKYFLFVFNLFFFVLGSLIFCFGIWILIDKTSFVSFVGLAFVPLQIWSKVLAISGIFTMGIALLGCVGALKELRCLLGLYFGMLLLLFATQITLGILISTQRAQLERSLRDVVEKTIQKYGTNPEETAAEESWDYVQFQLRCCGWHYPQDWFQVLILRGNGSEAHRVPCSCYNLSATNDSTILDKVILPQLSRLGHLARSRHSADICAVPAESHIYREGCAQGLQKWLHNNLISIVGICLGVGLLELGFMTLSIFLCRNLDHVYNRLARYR

[2] = target: T1, Human CD37; experiment: flow cytometry FRET with fluorophore-conjugated antibodies on Daudi cells
Protocol: (§1) 0.5×10⁶ Daudi cells/well were incubated with 10 μg/mL A555-conjugated donor antibodies and/or 10 μg/mL A647-conjugated acceptor antibodies in a total volume of 100 μL RPMI/0.2% BSA in 96-well round-bottom plates (Greiner Bio-One, Cat No 650101) for 15 minutes at 37° C. in a water bath. Cells were washed twice with FACS buffer, pelleted by centrifugation (3 min at 300×g) and resuspended in 200 μL PBST. Mean fluorescence intensities (MFI) were determined by flow cytometry on a FACS Canto II (BD Biosciences) by recording 10,000 events at 585/42 nm (FL2, donor A555) and […] (FL3), both excited at 488 nm, and at 660/20 nm (FL4, acceptor A647), excited at 635 nm. Unquenched donor fluorescence intensity was determined from cells incubated with only A555-conjugated donor antibodies, and non-enhanced acceptor intensity was determined from cells incubated with only A647-conjugated acceptor antibodies. Proximity-induced FRET was determined by measuring the energy transfer between cells incubated with both A555-conjugated donor and A647-conjugated acceptor antibodies. MFI values were used to calculate FRET according to the following equation: energy transfer (ET)=FL3(D,A)−FL2(D,A)/a−FL4(D,A)/b, wherein a=FL2(D)/FL3(D), b=FL4(A)/FL3(A), D is donor, A is acceptor and FLn (D,A)=donor+acceptor. ET values obtained were normalized according to the following equation: normalized energy transfer (%)=100*ET/FL3(D, A).

[3] = target: T2, Human CD20 (human, UniProt P11836 1-297); experiment: as above
T2 construct: Endogenous CD20 on the human lymphoma cell line Daudi
T2 sequence: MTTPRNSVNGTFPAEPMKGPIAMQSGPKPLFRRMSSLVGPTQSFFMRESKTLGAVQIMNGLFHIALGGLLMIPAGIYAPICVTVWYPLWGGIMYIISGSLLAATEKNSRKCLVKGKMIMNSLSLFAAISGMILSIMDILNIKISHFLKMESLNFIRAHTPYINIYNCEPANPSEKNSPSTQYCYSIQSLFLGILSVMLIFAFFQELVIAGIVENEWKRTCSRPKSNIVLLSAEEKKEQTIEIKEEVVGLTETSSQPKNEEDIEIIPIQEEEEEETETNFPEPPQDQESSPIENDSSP
Protocol: as §1

[4] = target: B1; experiment: FRET by flow cytometry, A555/A647-conjugated antibodies on Daudi cells; Fc-Fc interaction between cell-bound antibodies
Protocol: as §1, with “ET values obtained were normalized according to the following equation: normalized energy transfer (%)=100*ET/FL3(D, A).” left out

B1
binding result [1]: binds

B2
binding result [2]: binds

B3
binding result [3]: binds | binding result [4]: binds

B4
binding result [3]: binds
